According to the RNAGym collection of RNA variant scans (doi:10.7554/elife.80360):

B1: HDV Ribozyme (parent)
chain: GGCCGGCAUGGUCCCAGCCUCCUCGCUGGCGCCGGCUGGGCAACAUUCCGAGGGGACCGUCCCCUCGGUAAUGGCGAAUGGGACCCA

Variants of: B1
Assay: self-cleavage, relative activity (ratio to wild type); higher = more cleavage; co-transcriptional

Variant	self-cleavage
GGCCGGCAUGGUCCCAGCCUCCUCGCUGGCGCCGGCUGGGCAACAUUCCGAGGUGACCGUCCCCUCGGUAAUGGCGAAUGCGACCCA [G54U G81C]	0.299
GGCGGGCAUGGUCCCAGCCUCCUCGGUGGCGCCGGCUGGGCAACAUUCCGAGGGGACCGUCCCCUCGGUAAUGGCGAAUGGGACCCA [C4G C26G]	0.306
GGCCGGCAUGGUCUCAGCCUCCUCGCUGGCGCCGGCUGGGCAACAUUCCGAGGGGACCGUCCCCUCGGUAAUGGCGAAUGGGACCCA [C14U]	1.09
GGCCGGCAUGGUCCCAGCCUACUCGCUGGCGCCGGCUGGGCAACAUUCCGCGGGGACCGUCCCCUCGGUAAUGGCGAAUGGGACCCA [C21A A51C]	0.175
GGCCGGCAUGGUCCCACCCUCCUCGCUGGCGCCGGCUGGGCAACAUUCCGAGGGGACCGUCCCCUCGCUAAUGGCGAAUGGGACCCA [G17C G68C]	0.227
GGCCGGCAUGGUCCCAGCCUCCUCGCAAGCGCCGGCUGGGCAACAUUCCGAGGGGACCGUCCCCUCGGUAAUGGCGAAUGGGACCCA [U27A G28A]	0.0811
GGCCGGCAUGGUCCCAGCCUCCUCGCUGGCGCCGGCUGGGCACCAUUCCGAGGGGACCGUCCCCUCGGUAAUGGCGAAUGGGACGCA [A43C C85G]	0.519
GGCCGGCAUGGUCCCAGGCUCCUCGCUGGCGCUGGCUGGGCAACAUUCCGAGGGGACCGUCCCCUCGGUAAUGGCGAAUGGGACCCA [C18G C33U]	0.128
GGCCGGCAUGGUCCCAGCCUCCUCGCUGGCGACGGCUGGGCAACAUUCCGAGGGGAUCGUCCCCUCGGUAAUGGCGAAUGGGACCCA [C32A C57U]	0.318
GGUCGGCAUGGUCCCAGCCUCCUCGCUGGCGCCGGCUGGGCAACAUUCCGGGGGGACCGUCCCCUCGGUAAUGGCGAAUGGGACCCA [C3U A51G]	0.577
GGCCGGCAUGGUUCCAGCCUCCUCGCUGGCGCCGGCUGCGCAACAUUCCGAGGGGACCGUCCCCUCGGUAAUGGCGAAUGGGACCCA [C13U G39C]	0.0369
GGCCGGCAUGGUCCCAGCCUCCUGGCUGGCGCCGGCUGGACAACAUUCCGAGGGGACCGUCCCCUCGGUAAUGGCGAAUGGGACCCA [C24G G40A]	0.112
GGCCGGCAUGGUCCCAGCCUCCUCGCUGGCGCCAGCUGGGCAACAUUCCGAGGGGACCGUCCCUUCGGUAAUGGCGAAUGGGACCCA [G34A C64U]	0.133
GGCCGACAUGGUCCCAGCCUCCUCGCUGGCGCCGGCUGGGCAACAUUACGAGGGGACCGUCCCCUCGGUAAUGGCGAAUGGGACCCA [G6A C48A]	0.465
GGCCGGCAUGGUCCCAGCCUCCUCGCUGGCGCCGGCUGGGCAACAUUCCGAAGGGACCGUCCCCUCGGUAAUGGCGAAUGAGACCCA [G52A G81A]	0.529
GGCCGGCAUGGUCCCAGCCUCCACGCUGGCGCCGGCUGGCCAACAUUCCGAGGGGACCGUCCCCUCGGUAAUGGCGAAUGGGACCCA [U23A G40C]	0.181

Variant	self-cleavage
GGCCGGCAUGGUCCCAGCCUCCUCGCUGGCGCCGGCUGGGCAACAUUCCGAGGAGACCGUCCCCUCGGUAAUGACGAAUGGGACCCA [G54A G74A]	0.445
GGCCGGCAUUGUCCCAGCCUCCUCGCUGGCGCCGGCUGGGCAACAUUCCGAGGGGACCGUCCCCUCGGUAAUGGCGAAUGGGAUCCA [G10U C84U]	0.409
GGCCGGCAAGGUCCUAGCCUCCUCGCUGGCGCCGGCUGGGCAACAUUCCGAGGGGACCGUCCCCUCGGUAAUGGCGAAUGGGACCCA [U9A C15U]	1.02
GGCCCGCAUGGUCCCAGCCUCCUCGCUGGCGCCGGCUGGACAACAUUCCGAGGGGACCGUCCCCUCGGUAAUGGCGAAUGGGACCCA [G5C G40A]	0.208
GGCCGUCAUGGUCCCAGCCUCCUCGCUGGCGCCGGCUGGGCAACAUUCCGAGGGGACCGUCCCCUCGGUAAUGGCGAAUGGGAGCCA [G6U C84G]	0.0923
GGCCGGCAUGGUCCCAGCCUCCUCGCUGGCGUCGGGUGGGCAACAUUCCGAGGGGACCGUCCCCUCGGUAAUGGCGAAUGGGACCCA [C32U C36G]	0.0923
GGCCGGGAUGGUCCCAGCCUCCUCGCUGGCGCCGGCUGGGCAACAUUCCGAGGGGACCGUCCCCUCGGUAAGGGCGAAUGGGACCCA [C7G U72G]	0
GGCCGGCAGGGUCCUAGCCUCCUCGCUGGCGCCGGCUGGGCAACAUUCCGAGGGGACCGUCCCCUCGGUAAUGGCGAAUGGGACCCA [U9G C15U]	0.962
GGCCGGAAUGGUCCCAGCCUCCUCGCUGGCGCCGGCUGCGCAACAUUCCGAGGGGACCGUCCCCUCGGUAAUGGCGAAUGGGACCCA [C7A G39C]	0
GGCCGGCAUGGUCCCAGCCUCCUCGCUGGCGCCGGCUGGGCAACAUUCCGAGGGGAUCGUCCCCUCGGUAAUGCCGAAUGGGACCCA [C57U G74C]	0.208
UGCCGGCAUGGUCCCAGCCUCCUCGCUGGCGCCGGCUGGGCAACAUUCCGAGGGGACCGUCCCCUCGGUAAUGGCGGAUGGGACCCA [G1U A77G]	0.406
GGCCGGCAUGGUCCCAGCCUCCUCGCUGGCGCCGGCUGGGCAACAUUCCGAGGGGACCGUCGCCUCGGUGAUGGCGAAUGGGACCCA [C62G A70G]	0.578
GGCCGGCAUGGUCCCAGCCUCCUCGCUGGCGCCGGCUGGGCAUCAUUCCGAGGGGACCGUCCCCUCUGUAAUGGCGAAUGGGACCCA [A43U G67U]	0.499
GGCCGGCAUGGUCCCAGCCUCCUCGCUGGCGCCGGCUGGCCAACAUUCCGAGGGGACCGUCCCCUCCGUAAUGGCGAAUGGGACCCA [G40C G67C]	0.439
GGCCGGCAUGGUCCCAGCCUCCUCGCUGGCGCCGGCUAGGCAACAUUCCGAGGGGACCGUCCCCUUGGUAAUGGCGAAUGGGACCCA [G38A C66U]	0.128
GGCCGGCAUGGUCCCAACCUCCUCGCGGGCGCCGGCUGGGCAACAUUCCGAGGGGACCGUCCCCUCGGUAAUGGCGAAUGGGACCCA [G17A U27G]	0.485
